Assay results reported in US20260022144A1, “ANALGESIC POLYPEPTIDE” (Shanghai Puyou Biomedical Co., Ltd., priority 2022, published 2026).

Each molecule was assayed on VZV-induced pain model in rats (assay: VZV-induced pain model in rats, mechanical allodynia (von Frey) test). Conditions: 10 mg polypeptide/kg i.v., single administration, tested 0.5 h after administration.
Type: in vivo, rat
Protocol: A summary of the method for inducing pain model in rats by means of subcutaneous VZV inoculation is provided hereinafter. Briefly, male Sprague Dawley (SD) rats were deeply anesthetized by intraperitoneal injection of a Zoletil R: 50 (30 mg/kg)/xylazine (6 mg/kg) anesthetic at an injection volume of 6 mL/kg, and then the virus inoculation was performed by subcutaneous injection at the footpad area. The infection dose was 22800 TCID50 per animal, and the infection volume was 150 μL for all rats.
Administration was performed on alternate days. Briefly, the test articles were administered by subcutaneous injection at the footpad area on Day 1 and Day 3, respectively. As for Group 2, the administration of SEQ ID NO: 29 was initiated from the first concentration. Namely, the first concentration (10 μg/mL) was administered on Day 1, and the second concentration (20 μg/mL) was administered on Day 3. Pain was measured once after each administration.
Mechanical allodynia tests (also called “von Frey tests”) for pain measurements were performed on the rats one hour after administration of the test articles on Day 1 and Day 3, respectively. In the behavioral test for rats, mechanical allodynia is expressed as the 50% paw withdrawal threshold (PWT), which is calculated according to the following formula:
[formula] • wherein • Xf=final test fiber value used in the test • k=tabular value for the pattern of positive/negative responses (Chaplan et al. 1994, page 62) • δ=mean difference.
Briefly, the rats were placed individually in plexiglass boxes with a grid at the bottom to ensure that the rats' feet could be tested. The rats were acclimated to the environment for 15 minutes prior to the test. After the acclimation was completed, pain (mechanical allodynia) was tested on the center of the sole of the left hind foot of the rats using test fibers. The test fibers included 8 test strengths: 3.61 (0.4 g), 3.84 (0.6 g), 4.08 (lg), 4.31 (2 g), 4.56 (4 g), 4.74 (6 g), 4.93 (8 g) and 5.18 (15 g). During the test, the test fibers were pressed vertically against the skin and forces were applied to bend the fibers for 6-8 seconds with a 5-second interval between each test. During the test, a pain response was recorded if the animals quickly withdrew their feet. The pain response was also recorded if the animal withdrew their feet as the test fibers left the animal's skin. The pain response was not recorded if the animal moved or ambulated, and the test should be repeated. The test was started with 4.31 (2 g). If the animal had pain response, the next test should be performed with a test fiber with a lower strength: if the animal has no pain response, the next test should be performed with a test fiber with a higher strength. The maximum strength of the tested fibers was 5.18 (15 g). The test results were recorded in a table, wherein the presence of pain response was recorded as “x”, and the absence of pain response was recorded as “0”.
The rats were randomly divided into 2 groups, with 8 rats in the placebo group (Group 1, administered with vehicle (normal saline)) and 8 rats in the treatment group (Group 2, administered with 30 mg SEQ ID NO: 29/kg). Briefly, the test articles were administered to the rats on a single day by intravenous injection.
Mechanical allodynia tests were performed on the rats 0.5 h after administration of the test articles according to the method as recited in Example 1, respectively.
The rats were randomly divided into 3 groups, with 8 rats in the placebo group (Group 1, administered with vehicle (normal saline)) and 16 rats in the treatment groups (Groups 2 and 3, 8 rats/group, administered with various polypeptides). Briefly, vehicle (normal saline) was administered to the rats from Group 1 and various polypeptides were administered to the rats from Group 2 (SEQ ID: 29, SEQ ID: 57 and SEQ ID: 49; 10 mg polypeptide/kg) and 3 (SEQ ID: 75 and SEQ ID: 28: 10 mg polypeptide/kg) on a single day by intravenous injection.

| Molecule | analgetic effect (50% PWT) |
| --- | --- |
| SEQ ID NO: 57: artificial polypeptide of formula (I) X-Y; also listed for peripheral neuropathic pain (protein) SEKKQPVDLGLLEEDDEFEEFPAEDWAGLDEDEDAHVWEDNWDDDNVTSDFSNQLRATVLLMI | apparent analgetic effect |
| SEQ ID NO: 49: artificial polypeptide of formula (III) X-Y (protein) STKKQPVDLGLLETDSEFTEFPATSWAGLSESESAHVWTSNWDSSNVTSDFSNQLRATVLLMILVCETPYGCYVLHQKGRMCSAFLCC | apparent analgetic effect |
| SEQ ID NO: 28: polypeptide of SEQ ID NO: 28 for treating or preventing peripheral neuropathic pain (protein) SEKKQPVDLGLLEEDDEFEEFPAEDWAGLDEDEDAHVWEDNWDDDNVEDDFSNQLRATVLLMILVCETPYGCYVLHQKGRMCSAFLCC | apparent analgetic effect |
| SEQ ID NO: 75: artificial polypeptide of formula (I) X-Y (protein) SEKKQPVDLGLLEEDDEFEEFPAEDWAGLDEDEDAHVWEDNWDDDNVEDDFSNQLRATVLLMILVAETPYGAYV | apparent analgetic effect |

These molecules were tested on SNL pain model in rats (assay: SNL (spinal nerve ligation) pain model in rats, mechanical allodynia test). Conditions: SD rats, i.v. single administration (SEQ ID NO: 29 30 and 60 mg/kg; SEQ ID NO: 90 and 93 60 mg/kg), 1 h after administration.
Type: in vivo, rat
Protocol: A summary of the method for inducing pain model in rats by means of spinal nerve ligation is provided hereinafter. Briefly, male SD rats were anesthetized with Zoletil R 50+xylazine hydrochloride (20 mg/kg+8 mg/kg, intraperitoneal injection). The surgical areas on the waist regions of the animals were shaved, and the skin was disinfected with iodophor and 70% v/v ethanol for three times. The left spinal nerves L5 and L6 of the animals were isolated, tightly ligated with 6-0 silk suture, and the wounds were sutured.
On the 11th day post operation, the animals were acclimated to the experimental environment, 15 minutes/day, for 3 consecutive days.
Briefly, after SNL modeling, 24 animals were randomly divided into 3 groups (Groups 2, 3 and 4, N=8/group). Group 1 (a Sham group, for which the 10 animals received essentially the same operation procedure as other groups but their left spinal nerves L5 and L6 were neither isolated nor ligated) was used as the control group. The test articles were administrated to the animals according to the protocol shown in Table 5, and mechanical allodynia tests were respectively performed 1h after administration according to the method as recited in Example 1.
Briefly, after SNL modeling, 30 animals were randomly divided into 3 groups (Group 1, N=6/group; Groups 2 and 3, N=12/group). Various polypeptides of the present disclosure were administered to the animals from Groups 2 and 3, and the animals were subjected to mechanical allodynia tests 1 h after administration according to the method as recited in Example 1.

| Molecule | analgetic effect (50% PWT) |
| --- | --- |
| SEQ ID NO: 90: artificial polypeptide of formula (VI) X-Y (protein) STKKQPVDLGLLETDSEFTEFPATSWAGLSESESAHVWTSNWDSSNVTSDFSNQLRATVLLMILVAETPYGAYVLHQKGRMASAFLAA | certain analgetic effect |
| SEQ ID NO: 93: artificial polypeptide of formula (VI) or (I) X-Y (protein) SEKKQPVDLGLLEEDDEFEEFPAEDWAGLDEDESAHVWEDNWDDDNVTSDFSNQLRATVLLMILVAETPYGAYVLHQKGRMASAFLAA | certain analgetic effect |
